# Measurements reported in PMC9352680, “A comprehensive thermodynamic model for RNA binding by the Saccharomyces cerevisiae Pumilio protein PUF4”.
# T1: PUF4 RNA-binding domain (Saccharomyces cerevisiae, UniProt P25339 537-888)
# T1 sequence: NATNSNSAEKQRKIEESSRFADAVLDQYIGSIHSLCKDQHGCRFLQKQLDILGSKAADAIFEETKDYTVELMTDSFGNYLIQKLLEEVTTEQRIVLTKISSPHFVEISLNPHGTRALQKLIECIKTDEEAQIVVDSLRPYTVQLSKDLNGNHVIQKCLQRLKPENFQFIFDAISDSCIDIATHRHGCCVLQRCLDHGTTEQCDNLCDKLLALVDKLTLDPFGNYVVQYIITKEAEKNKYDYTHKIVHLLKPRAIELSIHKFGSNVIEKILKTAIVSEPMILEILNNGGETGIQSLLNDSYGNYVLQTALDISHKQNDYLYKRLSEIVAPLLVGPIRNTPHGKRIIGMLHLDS
# Target: T1, PUF4 RNA-binding domain
# Test: Mg; RNA-MaP; 20 mM Na-HEPES pH 7.4, 30 mM KOAc, 0.75 mM MgCl2, 0.1% Tween-20, 5% glycerol, 0.1 mg/mL BSA, 2 mM DTT; 25 C; 0.0125-409.6 nM protein
# Conditions: tags: N-His6-TEV cleaved; C-SNAP kept, Cy3B-labelled; label: tethered on chip by stalled RNA polymerase
row,Binder,Kd
1,UCUCUUGCUAUAUUAUUACAUCUCUU (ssRNA) [Id_ii_S1_P5E.3_K5.2_C5.2_[C-2G]_[T-1C]_H5.2_A5.1_F5.1_T5.2_[T11C]],509 nM
2,UCUCUUGCUAUAUUAUUAAUUCUCUU (ssRNA) [Id_ii_S1_P5E.3_K5.2_C5.2_[C-2G]_[T-1C]_H5.2_A5.1_F5.1_T5.2_[T11A]_[A12T]],343 nM
3,UCUCUUGCUAUAUUAUUAUCUCUCUU (ssRNA) [Id_ii_S1_P5E.3_K5.2_C5.2_[C-2G]_[T-1C]_H5.2_A5.1_F5.1_T5.2_[A12C]],307 nM
4,UCUCUUCCUGUAUUAUUAUUUCUCUU (ssRNA) [Id_ii_S1_P5E.2_K5.1_C5.2_[T-1C]_H5.1_A5.1_F5.1_T5.2_[A12T]],7.47 nM
5,UCUCUUUGUAUAUUAUUAAAUCUCUU (ssRNA) [Id_ii_S1_P5E.3_K5.2_C5.2_[C-2T]_[T-1G]_H5.2_A5.1_F5.1_T5.2_[T11A]],0.467 nM
6,UCUCUUCCUGUAUUAUUAUGUCUCUU (ssRNA) [Id_ii_S1_P5E.2_K5.1_C5.2_[T-1C]_H5.1_A5.1_F5.1_T5.2_[A12G]],6.12 nM
7,UCUCUUGUUAUAUUAUUACCUCUCUU (ssRNA) [Id_ii_S1_P5E.3_K5.2_C5.2_[C-2G]_H5.2_A5.1_F5.1_T5.2_[T11C]_[A12C]],9 nM
8,UCUCUUCAUGUAUUAUUAGCUCUCUU (ssRNA) [Id_ii_S1_P5E.2_K5.1_C5.2_[T-1A]_H5.1_A5.1_F5.1_T5.2_[T11G]_[A12C]],3.39 nM
9,UCUCUUCUUGUAUUAUUAGCUCUCUU (ssRNA) [Id_ii_S1_P5E.2_K5.1_C5.2_H5.1_A5.1_F5.1_T5.2_[T11G]_[A12C]],2.47 nM
10,UCUCUUUAUAUAUUAUUACGUCUCUU (ssRNA) [Id_ii_S1_P5E.3_K5.2_C5.2_[C-2T]_[T-1A]_H5.2_A5.1_F5.1_T5.2_[T11C]_[A12G]],18.1 nM
11,UCUCUUUCUAUAUUAUUAAUUCUCUU (ssRNA) [Id_ii_S1_P5E.3_K5.2_C5.2_[C-2T]_[T-1C]_H5.2_A5.1_F5.1_T5.2_[T11A]_[A12T]],615 nM
12,UCUCUUUGUAUCGUAUCUCUU (ssRNA) [Ic_S1_P4E.1_K4.1_C4.1_H4.1_A4.1_[A6C]_[T7G]_F4.1_T4.1],12.3 nM
13,UCUCUUUCUAUAUUAUUACCUCUCUU (ssRNA) [Id_ii_S1_P5E.3_K5.2_C5.2_[C-2T]_[T-1C]_H5.2_A5.1_F5.1_T5.2_[T11C]_[A12C]],388 nM
14,UCUCUUCCUGUAUUAUUAAUUCUCUU (ssRNA) [Id_ii_S1_P5E.2_K5.1_C5.2_[T-1C]_H5.1_A5.1_F5.1_T5.2_[T11A]_[A12T]],6.56 nM
15,UCUCUUGUUAUAUUAUUAUCUCUCUU (ssRNA) [Id_ii_S1_P5E.3_K5.2_C5.2_[C-2G]_H5.2_A5.1_F5.1_T5.2_[A12C]],16.3 nM
16,UCUCUUGUUAUAUUAUUAGUUCUCUU (ssRNA) [Id_ii_S1_P5E.3_K5.2_C5.2_[C-2G]_H5.2_A5.1_F5.1_T5.2_[T11G]_[A12T]],15.3 nM
17,UCUCUUUGUAUAUUAUUAUUUCUCUU (ssRNA) [Id_ii_S1_P5E.3_K5.2_C5.2_[C-2T]_[T-1G]_H5.2_A5.1_F5.1_T5.2_[A12T]],0.826 nM
18,UCUCUUCAUGUAUUAUUAGUUCUCUU (ssRNA) [Id_ii_S1_P5E.2_K5.1_C5.2_[T-1A]_H5.1_A5.1_F5.1_T5.2_[T11G]_[A12T]],3.5 nM
19,UCUCUUUCUAUAUUAUUAACUCUCUU (ssRNA) [Id_ii_S1_P5E.3_K5.2_C5.2_[C-2T]_[T-1C]_H5.2_A5.1_F5.1_T5.2_[T11A]_[A12C]],581 nM

row,Binder,Kd
1,UCUCUUUCUAUAUUAUUACUUCUCUU (ssRNA) [Id_ii_S1_P5E.3_K5.2_C5.2_[C-2T]_[T-1C]_H5.2_A5.1_F5.1_T5.2_[T11C]_[A12T]],390 nM
2,UCUCUUUCUAUAUUAUUACAUCUCUU (ssRNA) [Id_ii_S1_P5E.3_K5.2_C5.2_[C-2T]_[T-1C]_H5.2_A5.1_F5.1_T5.2_[T11C]],630 nM
3,UCUCUUUGUAUCCUAUCUCUU (ssRNA) [Ic_S1_P4E.1_K4.1_C4.1_H4.1_A4.1_[A6C]_[T7C]_F4.1_T4.1],4.4 nM
4,UCUCUUCUUGUAUUAUUAUUUCUCUU (ssRNA) [Id_ii_S1_P5E.2_K5.1_C5.2_H5.1_A5.1_F5.1_T5.2_[A12T]],4.09 nM
5,UCUCUUGUUAUAUUAUUACGUCUCUU (ssRNA) [Id_ii_S1_P5E.3_K5.2_C5.2_[C-2G]_H5.2_A5.1_F5.1_T5.2_[T11C]_[A12G]],22 nM
6,UCUCUUCAUGUAUUAUUAUUUCUCUU (ssRNA) [Id_ii_S1_P5E.2_K5.1_C5.2_[T-1A]_H5.1_A5.1_F5.1_T5.2_[A12T]],9.94 nM
7,UCUCUUUGUAUAUUAUUAGCUCUCUU (ssRNA) [Id_ii_S1_P5E.3_K5.2_C5.2_[C-2T]_[T-1G]_H5.2_A5.1_F5.1_T5.2_[T11G]_[A12C]],0.703 nM
8,UCUCUUCUUGUAUUAUUAAAUCUCUU (ssRNA) [Id_ii_S1_P5E.2_K5.1_C5.2_H5.1_A5.1_F5.1_T5.2_[T11A]],9.5 nM
9,UCUCUUUGUAUGCUAUCUCUU (ssRNA) [Ib_S1_P4E.1_K4.1_C4.1_H4.1_A4.1_[A6G]_[T7C]_F4.1_T4.1],7.91 nM
10,UCUCUUGUUAUAUUAUUAAAUCUCUU (ssRNA) [Id_ii_S1_P5E.3_K5.2_C5.2_[C-2G]_H5.2_A5.1_F5.1_T5.2_[T11A]],17.7 nM
11,UCUCUUCAUGUAUUAUUAUCUCUCUU (ssRNA) [Id_ii_S1_P5E.2_K5.1_C5.2_[T-1A]_H5.1_A5.1_F5.1_T5.2_[A12C]],7.59 nM
12,UCUCUUCCUGUAUUAUUAUCUCUCUU (ssRNA) [Id_ii_S1_P5E.2_K5.1_C5.2_[T-1C]_H5.1_A5.1_F5.1_T5.2_[A12C]],6.56 nM
13,UCUCUUUCUAUAUUAUUAAAUCUCUU (ssRNA) [Id_ii_S1_P5E.3_K5.2_C5.2_[C-2T]_[T-1C]_H5.2_A5.1_F5.1_T5.2_[T11A]],557 nM
14,UCUCUUUGUAUGGUAUCUCUU (ssRNA) [Ib_S1_P4E.1_K4.1_C4.1_H4.1_A4.1_[A6G]_[T7G]_F4.1_T4.1],14.6 nM
15,UCUCUUGCUAUAUUAUUAUUUCUCUU (ssRNA) [Id_ii_S1_P5E.3_K5.2_C5.2_[C-2G]_[T-1C]_H5.2_A5.1_F5.1_T5.2_[A12T]],391 nM
16,UCUCUUGCUAUAUUAUUAACUCUCUU (ssRNA) [Id_ii_S1_P5E.3_K5.2_C5.2_[C-2G]_[T-1C]_H5.2_A5.1_F5.1_T5.2_[T11A]_[A12C]],346 nM
17,UCUCUUGUUAUAUUAUUACUUCUCUU (ssRNA) [Id_ii_S1_P5E.3_K5.2_C5.2_[C-2G]_H5.2_A5.1_F5.1_T5.2_[T11C]_[A12T]],13.4 nM
18,UCUCUUCUUGUAUUAUUAGUUCUCUU (ssRNA) [Id_ii_S1_P5E.2_K5.1_C5.2_H5.1_A5.1_F5.1_T5.2_[T11G]_[A12T]],3.87 nM
19,UCUCUUCUUGUAUUAUUAACUCUCUU (ssRNA) [Id_ii_S1_P5E.2_K5.1_C5.2_H5.1_A5.1_F5.1_T5.2_[T11A]_[A12C]],5.25 nM

row,Binder,Kd
1,UCUCUUUGUAUAUUAUUAACUCUCUU (ssRNA) [Id_ii_S1_P5E.3_K5.2_C5.2_[C-2T]_[T-1G]_H5.2_A5.1_F5.1_T5.2_[T11A]_[A12C]],0.55 nM
2,UCUCUUCCUGUAUUAUUAACUCUCUU (ssRNA) [Id_ii_S1_P5E.2_K5.1_C5.2_[T-1C]_H5.1_A5.1_F5.1_T5.2_[T11A]_[A12C]],7.24 nM
3,UCUCUUUCUAUAUUAUUAUUUCUCUU (ssRNA) [Id_ii_S1_P5E.3_K5.2_C5.2_[C-2T]_[T-1C]_H5.2_A5.1_F5.1_T5.2_[A12T]],402 nM
4,UCUCUUGCUAUAUUAUUACGUCUCUU (ssRNA) [Id_ii_S1_P5E.3_K5.2_C5.2_[C-2G]_[T-1C]_H5.2_A5.1_F5.1_T5.2_[T11C]_[A12G]],549 nM
5,UCUCUUUCUAUAUUAUUAUCUCUCUU (ssRNA) [Id_ii_S1_P5E.3_K5.2_C5.2_[C-2T]_[T-1C]_H5.2_A5.1_F5.1_T5.2_[A12C]],455 nM
6,UCUCUUUCUAUAUUAUUAAGUCUCUU (ssRNA) [Id_ii_S1_P5E.3_K5.2_C5.2_[C-2T]_[T-1C]_H5.2_A5.1_F5.1_T5.2_[T11A]_[A12G]],582 nM
7,UCUCUUCUUGUAUUAUUAUGUCUCUU (ssRNA) [Id_ii_S1_P5E.2_K5.1_C5.2_H5.1_A5.1_F5.1_T5.2_[A12G]],5.83 nM
8,UCUCUUUGUAUGAUAUCUCUU (ssRNA) [Ib_S1_P4E.1_K4.1_C4.1_H4.1_A4.1_[A6G]_[T7A]_F4.1_T4.1],4.57 nM
9,UCUCUUUAUAUAUUAUUAGCUCUCUU (ssRNA) [Id_ii_S1_P5E.3_K5.2_C5.2_[C-2T]_[T-1A]_H5.2_A5.1_F5.1_T5.2_[T11G]_[A12C]],13.7 nM
10,UCUCUUCCUGUAUUAUUAAGUCUCUU (ssRNA) [Id_ii_S1_P5E.2_K5.1_C5.2_[T-1C]_H5.1_A5.1_F5.1_T5.2_[T11A]_[A12G]],14.6 nM
11,UCUCUUCAUGUAUUAUUAAUUCUCUU (ssRNA) [Id_ii_S1_P5E.2_K5.1_C5.2_[T-1A]_H5.1_A5.1_F5.1_T5.2_[T11A]_[A12T]],7.68 nM
12,UCUCUUUGUAUAUUAUUAAUUCUCUU (ssRNA) [Id_ii_S1_P5E.3_K5.2_C5.2_[C-2T]_[T-1G]_H5.2_A5.1_F5.1_T5.2_[T11A]_[A12T]],0.615 nM
13,UCUCUUCUUGUAUUAUUAAUUCUCUU (ssRNA) [Id_ii_S1_P5E.2_K5.1_C5.2_H5.1_A5.1_F5.1_T5.2_[T11A]_[A12T]],8.8 nM
14,UCUCUUUCUAUAUUAUUACGUCUCUU (ssRNA) [Id_ii_S1_P5E.3_K5.2_C5.2_[C-2T]_[T-1C]_H5.2_A5.1_F5.1_T5.2_[T11C]_[A12G]],494 nM
15,UCUCUUUAUAUAUUAUUAGUUCUCUU (ssRNA) [Id_ii_S1_P5E.3_K5.2_C5.2_[C-2T]_[T-1A]_H5.2_A5.1_F5.1_T5.2_[T11G]_[A12T]],22.2 nM
16,UCUCUUGCUAUAUUAUUACCUCUCUU (ssRNA) [Id_ii_S1_P5E.3_K5.2_C5.2_[C-2G]_[T-1C]_H5.2_A5.1_F5.1_T5.2_[T11C]_[A12C]],340 nM
17,UCUCUUUGUAUAUUAUUAUCUCUCUU (ssRNA) [Id_ii_S1_P5E.3_K5.2_C5.2_[C-2T]_[T-1G]_H5.2_A5.1_F5.1_T5.2_[A12C]],0.576 nM
18,UCUCUUCUUGUAUUAUUAUCUCUCUU (ssRNA) [Id_ii_S1_P5E.2_K5.1_C5.2_H5.1_A5.1_F5.1_T5.2_[A12C]],5.07 nM
19,UCUCUUCCUGUAUUAUUAAAUCUCUU (ssRNA) [Id_ii_S1_P5E.2_K5.1_C5.2_[T-1C]_H5.1_A5.1_F5.1_T5.2_[T11A]],18.8 nM
